Data reported in publication PMC12535091.

Target: Human β2GPI domain deletion mutant DI-DIV (human)
Test: ELISA; β2GPI or domain deletion mutants coated on Maxisorb plates at 1 µM overnight at 4 °C; Apo E-Biotin 50 nM, 1 h at RT; streptavidin-HRP, OD 450; % of binding to full length β2GPI

Human Apo E2, biotinylated (from UniProt P02649 19-317) (natural protein)
% binding: 42.5%
